Here are results for 41 sequences from the nanobody polyreactivity screen of Harvey et al. (2022).

This data set in a line: yeast display, Sf9 membrane polyspecificity reagent, FACS + sequencing; frameworks hold sequencing errors. Summed up:
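Polyreactivity labels are assigned by the sorting gate from which each nanobody was recovered. The gates were low and high (top ~1%), set on anti-HA fluorescence for expression and streptavidin fluorescence for reagent binding. Before sorting, galactose-induced (36–48 hours) yeast display cells were stained for 1 hour at 4 °C with 10% biotinylated, detergent-solubilized Sf9 membrane reagent.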
For “QVQLVESGGGLVQAGGSLRLSCAASGITFDDNAMAWYRQAPGKERELVATISDGGRTYYADSVKGRFTISRDNAKNTVFLQMNILKPEDTGVYYCAAGYPYYHVYGYGYWGQGTLVTVSS”, the “polyreactivity (PSR sort gate)” value is recorded as “low polyreactivity”.

As to “QVQLVESGGGLVQAGGSLRLSCAASGITFDEYAMGWYRQAPGKERELVAAISWRGAITYYADSVKGRFTISRDNAKNTVYLQMNSLKPEDTAGYYCNADRAYTYVRYYITQDFGYWGQGTQVTVSS”, the “polyreactivity (PSR sort gate)” value is on record as “high polyreactivity”.

Turning to “QVQLVESGGGLVQAGGSLRLSCAASGITFDEYAMGWYRQAPGKERELVASISAGSTYYADSVKGRFTISRDNAKNTVYLQMNSLKPEDTAVYYCAVVVDYDAYRYWGYDYWGQGTQVTVSS”, the “polyreactivity (PSR sort gate)” value was “high polyreactivity”.

On to “QVQLVESGGGLVQAGGSLRLSCAASGITFDGYAMGWYRQAPGKERELVAAISISGASTYYADSVKGRFTISRDNAKNTVYLQKNSLKPEDTAVYYCAASSWINQYPGDYWGQGTQVTVSS”, for which the “polyreactivity (PSR sort gate)” value is “high polyreactivity”.

“QVQLVESGGGLVQAGGSLRLSCAASGITFDGYAMGWYRQAPGKERELVAAISNTGDTTYYADSVKGRFTISRDNAKNTVYLQMNSLKPEDTAVYYCAGQRYYSYEYWGQGTQVTVSS”: the “polyreactivity (PSR sort gate)” value is given as “high polyreactivity”.

Turning to “QVQLVESGGGLVQAGGSLRLSCAASGITFDINAMGWYRQAPGKERELVAAISKSGRTYYADSVKGRFTISRDNAKNTVYLQMNSLKPEDTAVYYCNKVPYPSNDYWGQGTQVTVSS”, the “polyreactivity (PSR sort gate)” value is listed as “high polyreactivity”.

“QVQLVESGGGLVQAGGSLRLSCAASGITFDKNTMGWYRQAPGKERELVAAISARGGSTYYADSVKGRFTISRDNAKNTVYLQMNSLKPEDTAVYSCAADYSARYGYWGQGTQVNVSS”: the “polyreactivity (PSR sort gate)” value is “high polyreactivity”.

“QVQLVESGGGLVQAGGSLRLSCAASGITFDKYAMGWNRQAPGKERELDAAISGSDGSTYYADSVKGRFTISRDNAKNTVYLQMNILKPEDTAVYYCAAESEYAGTYEYDYWGQGTQVTVSS”: the “polyreactivity (PSR sort gate)” value is given as “low polyreactivity”.

On to “QVQLVESGGGLVQAGGSLRLSCAASGITFDQNAMGWYRQAPGKEREFVAAISVSGGRTYYADSVKGRFTISRDNAKNTVYLQMNSLKPEDTAVYYCAAYGGTRYYYSYYYWGQGTQVTVSS”, for which the “polyreactivity (PSR sort gate)” value was “high polyreactivity”.

Consider “QVQLVESGGGLVQAGGSLRLSCAASGITFDRNVMGWYRQAPGTERELVAAISKSGGRTYYADSVKGRFRISRDNAKNTDYLQLNSLKPEDTAVYYCNADVYSRKSLHQYEYWGQGTQVTVSS”, for which the “polyreactivity (PSR sort gate)” value is “high polyreactivity”.

“QVQLVESGGGLVQAGGSLRLSCAASGITFDWNAMGWYRQAPGKEREFVASISRGSGGTYYADSVKGRFTISRDNAKNTVYLQMNSLKPEDTAVYYCAAAVGNTDREYDYWGQGTQVTVSS”: the “polyreactivity (PSR sort gate)” value is reported as “low polyreactivity”.

Consider “QVQLVESGGGLVQAGGSLRLSCAASGITFDYNAMGWYRPAPGKERELVASITTNDDSTYYADSVKGRFTISRDNAKNTVYLQINSLKPEDTAVYSCNADQITGQFDYWGQGTQVTVSS”, for which the “polyreactivity (PSR sort gate)” value was “low polyreactivity”.

On to “QVQLVESGGGLVQAGGSLRLSCAASGITFDYNAMGWYRQAPGKERELVASINSGGNTNYADSVKGRFTISRDNAKNTVYLQMNSLKPEDTAVYYCATVSYYLYTRYDYWGQGTQVTVSS”, for which the “polyreactivity (PSR sort gate)” value is “low polyreactivity”.

For the sequence “QVQLVESGGGLVQAGGSLRLSCAASGITFDYYAMGWYRQAPGKERELVASISSDSSTYYADSVKGRFTISRDNAKNTVYLQMNSLKPEDTAVYYCNAGDSEYTYYGYYAFDYWGQGSQVTVSS”, the “polyreactivity (PSR sort gate)” value was “low polyreactivity”.

Regarding “QVQLVESGGGLVQAGGSLRLSCAASGITFDYYAMGWYRQEPGKERELVAAISSAGRTYYADSVKGRFTISRDNAKNTVYLQMNSLKPEDTAVYYCAATAFSYYPYHGDYWGQGTQVTVSS”, the “polyreactivity (PSR sort gate)” value is reported as “high polyreactivity”.

For the sequence “QVQLVESGGGLVQAGGSLRLSCAASGITFDYYDMGWYRTAPGKERELVAAISSDGSTYYADSVKGRFTISRDNAKNTVYLQMNSLKPEDTAVYYCNAVAIEPYFYVVYDIFDYWGQGTQVTVSS”, the “polyreactivity (PSR sort gate)” value is on record as “low polyreactivity”.

Take “QVQLVESGGGLVQAGGSLRLSCAASGITFEGYAMGWYRQAPGKERELVAAIRSSGTSTYYADSVKGRFTISRDNAMNTVYLQMNSLKPEDYAVYYCNRARSSSRYDYWGQGTQGTVSS”: the “polyreactivity (PSR sort gate)” value is “low polyreactivity”.

Consider “QVQLVESGGGLVQAGGSLRLSCAASGITFERYAMGWYRQAPGKERELVAAITYRGGSTYYADSVKGRFTISRDNAKNTVYLQMNSLKPEDTAVYYCNRARLRGAYIYWGQGTQVTVSS”, for which the “polyreactivity (PSR sort gate)” value is given as “high polyreactivity”.

For “QVQLVESGGGLVQAGGSLRLSCAASGITFETYALGWSRQAPGKERELVASIDYDGTSTYYADSVKGRFTISRDNAKNTVYLQMNSLKPEDTAVYYCNARDLDNYGWDDEEYDYWGQGTQVSVSS”, the “polyreactivity (PSR sort gate)” value is listed as “low polyreactivity”.

In the case of “QVQLVESGGGLVQAGGSLRLSCAASGITFEWYDMGWYRQAPGKEKDLVAAISQSGASTYYADSVKGRFTISRDNAKNTVYLQMNSLKPEETAVYYCATRARYVGGYKYNYWGQGTQVTVSS”, the “polyreactivity (PSR sort gate)” value is “high polyreactivity”.

With “QVQLVESGGGLVQAGGSLRLSCAASGITFEYYAMGWYRPAPGKERELVAAIDTGGSTNYADSVKGRFTISRDNAKNTVYLQMNSLKPEDTAVYSCAADWSWWDGEDDHFEYDYWGQGTQVTVSS”, the “polyreactivity (PSR sort gate)” value is given as “low polyreactivity”.

For the sequence “QVQLVESGGGLVQAGGSLRLSCAASGITFFAYTMGWYRQAHGKERELVASISSSGGSTNYADSVKGRFTISRDNAKNTVYLQMNSLKPEDTAVYYCAARQSLYRGGRWYDYWGQGTQVTVSS”, the “polyreactivity (PSR sort gate)” value is on record as “high polyreactivity”.

Regarding “QVQLVESGGGLVQAGGSLRLSCAASGITFFHYAMGWYRQAPGKERELVATISWRAGSTYADSVKGRFTISRDNAKNTVYLQMNSLKPEDTAVYYCNAVWTYHSGSGGYLFDYWGQGTQVTVSS”, the “polyreactivity (PSR sort gate)” value is “low polyreactivity”.

As to “QVQLVESGGGLVQAGGSLRLSCAASGITFFPYAMGWYRQAPGKERELVASISDGGGTNYAASVKGRFTISRDNAKNTVYLQMNSLKPEDTAVYYCATDASTYAYYGGDYWGQGTQVTVSS”, the “polyreactivity (PSR sort gate)” value is recorded as “low polyreactivity”.

Turning to “QVQLVESGGGLVQAGGSLRLSCAASGITFFVYAMGWYRQAPGKERELVAAISSTASTNYADSVKGRFTISRDNAKYTVYLQMNSRKPEDTAVYYCNAGVWSLGTYWQFDYWGQGTQVTVSS”, the “polyreactivity (PSR sort gate)” value is recorded as “high polyreactivity”.

In the case of “QVQLVESGGGLVQAGGSLRLSCAASGITFFYYAMGWYRQAPGKERELVAAINWSGRTYYADSVKGRFTISRDNAKNTVYLQMNSLKPEDTAVSYCAAVTYGPGVSGMDYWGQGTQVTVSS”, the “polyreactivity (PSR sort gate)” value is recorded as “low polyreactivity”.

As to “QVQLVESGGGLVQAGGSLRLSCAASGITFFYYAMGWYRQAPGKERELVAAISTSGGRTYYADSVKGRFTISRDNAKNTVYLQMNSLKPEDTAVYYCAARSRVPPAGPRYDYWGQGTQVTVSS”, the “polyreactivity (PSR sort gate)” value is recorded as “high polyreactivity”.

Consider “QVQLVESGGGLVQAGGSLRLSCAASGITFGANTMGWYRQAPGKERELVAAITISGGITHYADSVKGRFTISRDNAKNTVYLQMNSLKPEDTAVYYCAAGAYWRLYPYRQRNGGRMYYWGQGTQVTVSS”, for which the “polyreactivity (PSR sort gate)” value is recorded as “low polyreactivity”.

In the case of “QVQLVESGGGLVQAGGSLRLSCAASGITFGAYAMGWDRQAPGKERELVASISSSGSTYADSVKGRFTISRDNAKTTVYLQMNSLKPEDTAVYYCNAVGFQANDYNYWRQGTQVTVSS”, the “polyreactivity (PSR sort gate)” value is given as “low polyreactivity”.

In the case of “QVQLVESGGGLVQAGGSLRLSCAASGITFGAYTMGWYRQAPGKERELVAAISGSGGSTYYADSVKGRFTISRDNAKNTVYLQMNSLKPEDTAVTYCNKVLSPHLGCSFDYWGQGTEVTVSS”, the “polyreactivity (PSR sort gate)” value is on record as “high polyreactivity”.

Regarding “QVQLVESGGGLVQAGGSLRLSCAASGITFGDYAMVWYRQAPGKERELVAAITSGGSTYYADSVKGRCTISRDNAKNTVYLQMNILKPEDTAVYYCNRQYNQWIHYYYRMDYWGQGTQVTVSS”, the “polyreactivity (PSR sort gate)” value is on record as “high polyreactivity”.

As to “QVQLVESGGGLVQAGGSLRLSCAASGITFGDYAMVWYRQAPGKERELVAGINWSGDGTYYADSLKGRFTISRDKAKNTVYLQMNSLKPEDSAVYYCAAETFYDYGGYDYWGQGTQVTVSS”, the “polyreactivity (PSR sort gate)” value was “low polyreactivity”.

In the case of “QVQLVESGGGLVQAGGSLRLSCAASGITFGDYTMGWYRQAPGKERELVAVISSGGNTNYADSVKGRFTISRDNAKNTVYLQMNSLKPEDTAVYYCAAVIASYGTRYRGGYTRYYYWGQGTQVTVSS”, the “polyreactivity (PSR sort gate)” value was “high polyreactivity”.

Consider “QVQLVESGGGLVQAGGSLRLSCAASGITFGHYAMGWYRQAPGKERQLVAGINWSGDGRYYADSVKGRFTISRDNAKNTVYLQMNSLKPEDTAVYYCDAETFYDYGGYDYWGQGTQVTVSS”, for which the “polyreactivity (PSR sort gate)” value is “low polyreactivity”.

Take “QVQLVESGGGLVQAGGSLRLSCAASGITFGHYTMGWYRQAPGKEWDLVAAISWSGGSTYYADSVKGRFTISRDNAKYTVYLQMNSLKPEDTAVYYCNRVKRVIASYDSDYWGQGTQVTVSS”: the “polyreactivity (PSR sort gate)” value is recorded as “low polyreactivity”.

On to “QVQLVESGGGLVQAGGSLRLSCAASGITFGIYAMGWYRQAPGKERELVAAIDGSDGSTYYADSVKGRFTISRDNAKNTVYLQMKSLKPEDTAVYYCNAENGYSWDVFSDYWGQGTQVTVSS”, for which the “polyreactivity (PSR sort gate)” value is on record as “low polyreactivity”.

Regarding “QVQLVESGGGLVQAGGSLRLSCAASGITFGIYVMGWYRPAPGKEWELVATISRSDDNTYYADSVKGRFTISRDNAKNTVYLQMNSLKPEDTAVYYCAAYWYDLYWDYYTFDYWGQGTQVTVSS”, the “polyreactivity (PSR sort gate)” value is listed as “low polyreactivity”.

Turning to “QVQLVESGGGLVQAGGSLRLSCAASGITFGKNAMGWYRQAPGKERELVATIRRSGGSTYADSVKGRFTISRDNAKNTVYLQMNSLKPEDTAVYYCNARSWNTYNYWGQGTQVTVSS”, the “polyreactivity (PSR sort gate)” value is given as “high polyreactivity”.

“QVQLVESGGGLVQAGGSLRLSCAASGITFGNYAMGWYRQAPGKERELVAAITGSGGRTYYADSVKGRFTISRDNAKNTVYLQMNSLKPEDTAVYYCNRRQYGRKKQYDYWGQGTQVTVSS”: the “polyreactivity (PSR sort gate)” value is given as “high polyreactivity”.

In the case of “QVQLVESGGGLVQAGGSLRLSCAASGITFGPNAMGWYRQAPGKERELVAAISWRGGSTYYADSVKGRFTISRDNAKNTVYLQMNSLKPEDTAVYYCAKVQIPASYIRYDYWGQGTQVTVSS”, the “polyreactivity (PSR sort gate)” value is on record as “low polyreactivity”.

Turning to “QVQLVESGGGLVQAGGSLRLSCAASGITFGPYAMGWYRQAPGKERELVAAISAGGGSTYYADSVKGRFTISRDNAKNTVYLQMNSLKPEDTAVYYCAAYLLHHYGGPEYYYWGQGTQVTVSS”, the “polyreactivity (PSR sort gate)” value is reported as “high polyreactivity”.
